Source: publication PMC3921101

Biological target: L-selectin (CD62L) on Jurkat T cells (human (endogenous in Jurkat)) (UniProt P14151)
Test: flow cytometry on cells

Chain of UniProt P14151 (P14151 39-372): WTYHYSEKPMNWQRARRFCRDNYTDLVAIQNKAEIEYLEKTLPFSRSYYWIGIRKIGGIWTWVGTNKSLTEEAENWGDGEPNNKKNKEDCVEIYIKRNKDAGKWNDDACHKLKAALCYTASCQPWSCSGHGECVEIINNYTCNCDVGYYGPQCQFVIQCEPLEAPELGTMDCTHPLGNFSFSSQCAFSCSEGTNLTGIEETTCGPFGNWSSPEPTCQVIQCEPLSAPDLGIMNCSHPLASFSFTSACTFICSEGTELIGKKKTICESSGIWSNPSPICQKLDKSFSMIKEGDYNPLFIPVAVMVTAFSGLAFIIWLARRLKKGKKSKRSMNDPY

fold binding (MFI) with DREG-55 mAb, relative to the DREG-200 mAb sample [fold] | Substance
1.4 | Human E-selectin-Fc chimera (from UniProt P16581 22-556) (Fc fusion)
1.6 | Human PSGL-1-Fc chimera (from UniProt Q14242 42-320) (Fc fusion)
